Two proteins from patent US20200081011 can be followed below.

Data set [1] addresses T1, DEGW|ALQH (Table 1 substrate sequence).
T1 chain: DEGWALQH

In data set [2] the target is T2, NMKW|TRVL (Table 1 substrate sequence).
T2 chain: NMKWTRVL

In data set [3] the target is T3, PWTW|YGVK (Table 1 substrate sequence).
T3 chain: PWTWYGVK

Data set [4] has as its target T4, VGKW|SYRM (Table 1 substrate sequence).
T4 chain: VGKWSYRM

Data set [5] has as its target T5, gastricsin selective internally quenched fluorescent substrate DEGW^ALQH.
T5 chain: DEGWALQH

The target of data set [6] is T6, FGIF|YLNG (Table 1 substrate sequence).
T6 chain: FGIFYLNG

Data set [7] has as its target T7, GLY|FRYE (Table 1 substrate sequence).
T7 chain: GLYFRYE

For data set [8], the target named is T8, HMIA|LYWG (Table 1 substrate sequence).
T8 chain: HMIALYWG

Data set [9] addresses T9, IKIL|MFYW (Table 1 substrate sequence).
T9 chain: IKILMFYW

Data set [10] deals with T10, cathepsin E selective internally quenched fluorescent substrate AGFSL|PA.
T10 chain: AGFSLPA

B1: recombinant gastricsin (R&D Systems, 6186-AS) (protein)
chain: SVTYEPMAYMDAAYFGEISIGTPPQNFLVLFDTGSSNLWVPSVYCQSQACTSHSRFNPSESSTYSTNGQTFSLQYGSGSLTGFFGYDTLTVQSIQVPNQEFGLSENEPGTNFVYAQFDGIMGLAYPALSVDEATTAMQGMVQEGALTSPVFSVYLSNQQGSSGGAVVFGGVDSSLYTGQIYWAPVTQELYWQIGIEEFLIGGQASGWCSEGCQAIVDTGTSLLTVPQQYMSALLQATGAQEDEYGQFLVNCNSIQNLPSLTFIINGVEFPLPPSSYILSNNGYCTVGVEPTYLSSQNGQPLWILGDVFLRSYYSVYDLGNNRVGFATAA
On to B1, for which the Relative Cleavage in data set [1] stood at 0.47; in [2] it was 0.33; in data set [3], 1; in data set [4], 0.34. Further, the Total Cleavage is 30 in [1], 21 in [2], 64 in data set [3] and 22 in [4]. In addition, the kcat/Km (M-1/s-1) in data set [5] was 480000 M-1/s-1. The “selectivity of fluorescent substrate cleavage (initial velocity) for gastricsin over cathepsin D” value in [5] is “greater than 120-fold selective for gastricsin over both cathepsins D and E”. Also, the “selectivity of fluorescent substrate cleavage (initial velocity) for gastricsin over cathepsin E” value in [5] was “greater than 120-fold selective for gastricsin over both cathepsins D and E”.

B2: recombinant cathepsin E (R&D Systems, 1294-AS) (protein)
chain: IQFTESCSMDQSAKEPLINYLDMEYFGTISIGSPPQNFTVIFDTGSSNLWVPSVYCTSPACKTHSRFQPSQSSTYSQPGQSFSIQYGTGSLSGIIGADQVSVEGLTVVGQQFGESVTEPGQTFVDAEFDGILGLGYPSLAVGGVTPVFDNMMAQNLVDLPMFSVYMSSNPEGGAGSELIFGGYDHSHFSGSLNWVPVTKQAYWQIALDNIQVGGTVMFCSEGCQAIVDTGTSLITGPSDKIKQLQNAIGAAPVDGEYAVECANLNVMPDVTFTINGVPYTLSPTAYTLLDFVDGMQFCSSGFQGLDIHPPAGPLWILGDVFIRQFYSVFDRGNNRVGLAPAVP
Take B2: the Relative Cleavage in data set [6] amounted to 0.88; in data set [7] it was 1; in data set [8], 0.4; in [9], 0.68. Besides, the Total Cleavage in data set [6] is 22; in data set [7] it was 25; in [8], 10; in data set [9], 17. The “selectivity of fluorescent substrate cleavage (initial velocity) for cathepsin E over cathepsin D” value in data set [10] is “more than 100-fold selective for cathepsin E over both cathepsin D and gastricsin”. The “selectivity of fluorescent substrate cleavage (initial velocity) for cathepsin E over gastricsin” value in data set [10] is “more than 100-fold selective for cathepsin E over both cathepsin D and gastricsin”.
